{"source": "patent US20240209065A1", "key": {"[1]": {"target": "SARS-CoV-2 Omicron BA.2 RBD, aa 319-541, C-terminal 6xHis-tag (SARS-CoV-2) (UniProt P0DTC2)"}, "[2]": {"target": "SARS-CoV-2 Omicron BA.4/5 RBD, aa 319-541, C-terminal 6xHis-tag (SARS-CoV-2) (UniProt P0DTC2)"}, "[3]": {"target": "S protein of authentic SARS-CoV-2 Omicron BA.1 virus (SARS-CoV-2) (UniProt P0DTC2)", "assay": "cell-based or functional assay"}, "[4]": {"target": "S protein of authentic SARS-CoV-2 Omicron BA.5 virus (SARS-CoV-2) (UniProt P0DTC2)", "assay": "cell-based or functional assay"}, "[5]": {"target": "SARS-CoV-2 Omicron BA.2 RBD, aa 319-541, C-terminal 6xHis-tag (SARS-CoV-2) (UniProt P0DTC2)", "assay": "ELISA, plates coated with RBD"}}, "note": "Like-named read-outs stand apart in the source and are kept apart here.", "data": [{"substance": "DXP-604 IgG (antibody)", "values": [{"measurement": "EC50", "setting": "[1]", "result": 9.48, "unit": "nM"}, {"measurement": "EC50", "setting": "[2]", "result": 1.6, "unit": "nM"}, {"measurement": "IC50, microneutralization assay with authentic virus", "setting": "[3]", "result": 22.9, "unit": "nM"}, {"measurement": "IC50, microneutralization assay with authentic virus", "setting": "[4]", "result": 12.4, "unit": "nM"}, {"measurement": "EC50", "setting": "[5]", "result": 9.48, "unit": "nM"}]}]}
